Measurements taken from the supplement of paper PMC10567573.

B1: ZNF193 (parent)
chain: QKRYHCKECGKVFSQSAGLIQHQR

Variants of: B1
Assay: protein stability index of a GFP-peptide fusion (GPS, HEK-293T) (PSI 1-6); higher = more stable
Settings: c terminus: a fixed tail appended
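Note: lentivirally expressed fusions sorted by FACS into six bins by GFP to DsRed ratio, PSI derived from sequencing read proportions per bin multiplied by bin number.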

Protein stability index of substitutions, site by site:
K7: H 2.94, I 2.69, L 2.95, M 2.6, N 3.23, P 3.33, Q 3.15, R 2.66, S 3.35, T 2.74, V 2.99, W 2.49, Y 3.1
E8: A 2.75, C 4.26, D 2.93, F 2.56, G 2.66, H 3.81, I 2.98, K 3.5, L 2.75, M 2.6, N 2.99, P 2, Q 2.91, R 3.12, S 2.59, T 2.94, V 2.68, W 2.71, Y 2.67
C9: A 3.45, D 3.97, E 3.64, F 2.17, G 3.2, H 3.13, I 2.83, K 3.64, L 2.52, M 2.63, N 3.17, P 3.04, Q 3.19, R 3.38, S 3.11, T 3.27, V 3.07, W 2.58, Y 2.7
G10: A 1.96, C 1.83, D 1.79, E 2.01, F 2.03, H 1.84, I 1.51, K 1.98, L 1.95, M 2.12, N 2.5, P 2.33, Q 2.29, R 2, S 2.11, T 1.83, V 1.46, W 2.02, Y 1.67
K11: A 3.19, C 2.3, D 1.88, E 3.1, F 1.82, G 1.83, H 2.34, I 2.32, L 2.47, M 3.23, N 1.66, P 2.12, Q 3.04, R 2.01, S 2.37, T 2.64, V 2.18, W 2.32, Y 1.7
V12: A 2.43, C 2.81, D 3.27, E 3.23, F 2.67, G 2.77, H 2.82, I 2.76, K 3.2, L 2.25, M 2.6, N 2.78, P 2.17, Q 2.82, R 3.33, S 3.27, T 3.52, W 2.82, Y 2.75
F13: A 1.81, C 2.15, D 1.72, E 2.42, G 1.87, H 3.12, I 2.42, K 2.25, L 2.5, M 1.82, N 1.67, P 2.39, Q 2.29, R 2.17, S 2.12, T 1.91, V 2.05, W 2.03, Y 1.99
S14: A 3.47, C 2.58, D 3.47, E 3.77, F 2.68, G 2.54, H 2.98, I 2.64, K 3.23, L 3.16, M 2.93, N 2.78, P 2.72, Q 2.86, R 3.03, T 3.06, V 2.53, W 2.08, Y 3.25
Q15: A 2.83, C 3.93, D 4.51, E 3.85, F 2.28, G 2.8, H 2.91, I 1.92, K 3.45, L 1.99, M 2.06, N 4.24, P 1.58, R 3.08, S 4.11, T 4.01, V 2.16, W 2.06, Y 2.73
S16: A 3.71, C 2.9, D 2.47, E 4.39, F 2.86, G 2.7, H 3.77, I 2.98, K 3.53, L 3.59, M 3.72, N 3.11, P 3.44, Q 3.88, R 3.97, T 2.27, V 2.62, W 2.99, Y 3.8
A17: C 2.45, D 3.42, E 3.51, F 2.27, G 2.54, H 2.66, I 2.28, K 3.09, L 2.22, M 1.82, N 3.05, P 2.02, Q 2.76, R 3.21, S 3.02, T 2.46, V 2.48, W 2.86, Y 1.94
G18: A 3.12, C 2.7, D 4.32, E 4.13, F 2.26, H 2.84, I 2.4, K 2.8, L 3.01, M 2.06, N 2.32, P 2.29, Q 3.55, R 2.86, S 2.22, T 2.65, V 2.09, W 1.68, Y 2.31
L19: A 2.45, C 3.12, D 2.35, E 2.31, F 2.43, G 2.37, H 2.58, I 2.2, K 2.34, M 2.35, N 2.56, P 2.54, Q 2.45, R 2.55, S 1.97, T 1.94, V 2.12, W 2.41, Y 2.42
I20: A 3.06, C 3.95, D 3.02, E 2.91, F 2.45, G 2.38, H 3.31, K 3.26, L 3.08, M 2.86, N 2.5, P 2.27, Q 2.83, R 3.5, S 2.69, T 3.09, V 3.22, W 2.4, Y 2.98
Q21: A 3.2, C 3.06, D 3.82, E 3.7, F 1.91, G 2.67, H 2.88, I 2.1, K 2.6, L 2.57, M 2.55, N 3.02, P 2.08, R 2.69, S 2.47, T 2.61, V 2.37, W 2.44, Y 2.21
H22: A 1.16, C 2.04, D 2.1, E 1.59, F 2.66, G 1.41, I 1.73, K 2.14, L 1.75, M 1.84, N 1.67, P 1.64, Q 2.1, R 1.62, S 1.9, T 2.05, V 1.33, W 1.99, Y 1.5
Q23: A 2.5, C 2.81, D 2.29, E 2.55, F 2.05, G 2.07, H 2.97, I 2.57, K 3.36, L 2.69, M 3.13, N 2.36, P 1.74, R 2.85, S 2.54, T 2.51, V 2.37, W 1.97, Y 2.4
R24: A 2.83, C 4.52, D 3.33, E 3.53, F 2, G 3.05, H 3.44, I 1.96, K 3.65, L 1.43, M 2.44, N 2, P 2.44, Q 2.48, S 2.43, T 2.33, V 2.28
